From patent US20190094207A1 (JAPANESE FOUNDATION FOR CANCER RESEARCH, published 2019)
One block for each binder: values may come before it.

Assays:
[1] = biological target: INCENP (Inner Centromere Protein), endogenous, as part of the chromosomal passenger complex (CPC) (human, UniProt Q9NQS7 1-918); assay: INCENP immunoprecipitated from mitotic HeLa cell extract; amount of coprecipitated protein (INCENP in the same precipitate: 1280 pmol)
Protocol: The cells in the mitotic phase were incubated in a solution, which was prepared by adding 1 U/μl OmniCleave Endonuclease (manufactured by Epicentre) in the above immunoprecipitation buffer, at 4° C. for 30 minutes. The solution was centrifuged at 4° C. and 15,000 rpm for 10 minutes and the supernatant was further centrifuged. The resultant supernatant was used for immunoprecipitation. Protein A-Sepharose (manufactured by Bio-Rad) having an antibody bound thereto, was allowed to react with cell extracts and subjected to immunoprecipitation. […]
Next, whether or not binding to INCENP differs among the subtypes of HP1 was analyzed (FIG. 1B). […] Mitotic HeLa cell extracts were subjected to immunoprecipitation with an INCENP antibody or control IgG and then analyzed by immunoblotting using antibodies against INCENP, Aurora B (clone 6, manufactured by BD Bioscience) and Survivin (71G4B7E, manufactured by Cell Signaling Technology) constituting CPC; an HP1α antibody (clone 15.19s2, manufactured by Millipore), an HP1β antibody (clone 1MOD-1A9, manufactured by Millipore) and an HP1 γ antibody (clone 2MOD-1G6, manufactured by Millipore).
Quantitative analysis was carried out using purified recombinant HP1-subtype proteins.

[2] = biological target: T1, Wild type HP1α (His tag or GST tag attached) (UniProt P45973 1-191); assay: isothermal titration calorimetry, average of 5 experiments
T1 construct: also called heterochromatin protein 1; not shown: His tag or GST tag
T1 sequence (P45973 whole entry): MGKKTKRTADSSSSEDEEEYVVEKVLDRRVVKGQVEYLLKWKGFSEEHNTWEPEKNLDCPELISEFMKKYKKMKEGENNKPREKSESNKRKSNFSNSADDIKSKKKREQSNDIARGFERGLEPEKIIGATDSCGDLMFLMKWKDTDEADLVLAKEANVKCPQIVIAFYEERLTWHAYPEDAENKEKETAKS
Protocol: (§1) Wild type HP1α and a region at positions 121 to 270 in INCENP (SEQ ID NO: 8, INCENP WT) were used in the binding assay. The region at positions 121 to 270 in INCENP contains an important motif […], required for binding to HP1. A mutant (SEQ ID NO: 9, INCENP 3A) was obtained by substituting three amino acids in this region with alanine residues and used as a control. A dissociation constant thereof was determined by isothermal titration calorimetry. As an isothermal titration calorimetry apparatus, any device may be used. For example, using MicroCal iTC2000 system (manufactured by GE healthcare biosciences), measurement may be carried out, in accordance with a conventional method.
(§2) The above peptides, to which His tag or GST tag was attached, were subjected to isothermal titration calorimetry to determine a dissociation constant. Note that, the dissociation constant was computationally obtained based on average values of 5 experiments.

[3] = biological target: T1, Wild type HP1α (His tag or GST tag …); assay: isothermal titration calorimetry
Protocol: as §1, §2

[4] = biological target: T1, Wild type HP1α (His tag or GST tag …); assay: alpha assay with acceptor and donor beads capturing His tag or GST tag
Protocol: If a candidate compound is added in the binding assay system, a compound influencing the binding of INCENP and HP1 can be screened. Further, a system for analyzing the binding of HP1 and INCENP based on an alpha assay, which is more sensitive and easier in operation, was constructed. The interaction between HP1α and INCENP was determined by using acceptor beads or donor beads that can capture His tag or GST tag and detecting fluorescent signal in accordance with a conventional method. As a result of that His tag or GST tag was attached to HP1α and a region at positions 160 to 210 in INCENP (SEQ ID NO: 10) and the aforementioned alpha assay using acceptor beads and donor beads was carried out, a binding can be sensitively detected. Accordingly, owing to HTS using the binding assay or alpha assay, compounds influencing the binding of HP1 and INCENP can be screened.

GST-Aurora B = biological target: T2, GST-Aurora B (UniProt Q96GD4 1-344, limits assumed); assay: GST pull down with recombinant full-length INCENP + GST-Aurora B, without HP1α, with HP1α WT or with I165E; immunoblot and bar chart of Hec1 binding
T2 construct: not shown: GST
Protocol: Then, enzyme kinetics analysis of Aurora B was carried out. […] Further, analysis of proteins binding to GST-Aurora B was carried out by the GST pull down assay. As a result, the amount of Hec1 binding to GST-Aurora B increased in the conditions where HP1 can bind to INCENP. […] Accordingly, binding of HP1α to INCENP is required for activating Aurora B.

INCENP (Inner Centromere Protein), endogenous, as part of the chromosomal passenger complex (CPC), sequence (Q9NQS7 whole entry, one chain of several): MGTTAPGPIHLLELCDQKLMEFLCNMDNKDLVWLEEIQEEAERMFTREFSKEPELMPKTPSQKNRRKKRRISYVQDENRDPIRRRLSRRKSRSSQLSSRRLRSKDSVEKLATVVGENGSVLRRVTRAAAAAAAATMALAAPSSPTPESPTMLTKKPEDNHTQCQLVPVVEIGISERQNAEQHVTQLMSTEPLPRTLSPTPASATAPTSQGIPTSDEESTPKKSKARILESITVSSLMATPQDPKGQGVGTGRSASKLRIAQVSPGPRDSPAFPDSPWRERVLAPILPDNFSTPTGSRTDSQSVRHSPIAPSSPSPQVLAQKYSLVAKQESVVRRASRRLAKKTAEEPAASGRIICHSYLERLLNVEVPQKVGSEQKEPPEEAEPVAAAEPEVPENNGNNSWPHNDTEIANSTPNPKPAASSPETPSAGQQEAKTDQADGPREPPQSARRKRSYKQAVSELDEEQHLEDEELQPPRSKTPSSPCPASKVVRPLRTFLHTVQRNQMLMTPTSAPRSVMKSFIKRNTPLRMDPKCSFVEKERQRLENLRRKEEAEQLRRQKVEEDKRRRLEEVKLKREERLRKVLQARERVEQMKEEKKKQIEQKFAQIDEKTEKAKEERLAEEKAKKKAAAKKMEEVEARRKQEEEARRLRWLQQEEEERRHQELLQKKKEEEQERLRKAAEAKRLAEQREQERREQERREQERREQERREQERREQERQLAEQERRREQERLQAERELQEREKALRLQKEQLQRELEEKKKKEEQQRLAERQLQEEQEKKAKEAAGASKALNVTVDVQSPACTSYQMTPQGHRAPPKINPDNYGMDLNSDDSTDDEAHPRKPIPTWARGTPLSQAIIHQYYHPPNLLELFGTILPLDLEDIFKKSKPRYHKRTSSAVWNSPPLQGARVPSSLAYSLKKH

B1: Aurora B (endogenous) (enzyme, human, UniProt Q96GD4 1-344, looked up)
chain: MAQKENSYPWPYGRQTAPSGLSTLPQRVLRKEPVTPSALVLMSRSNVQPTAAPGQKVMENSSGTPDILTRHFTIDDFEIGRPLGKGKFGNVYLAREKKSHFIVALKVLFKSQIEKEGVEHQLRREIEIQAHLHHPNILRLYNYFYDRRRIYLILEYAPRGELYKELQKSCTFDEQRTATIMEELADALMYCHGKKVIHRDIKPENLLLGLKGELKIADFGWSVHAPSLRRKTMCGTLDYLPPEMIEGRMHNEKVDLWCIGVLCYELLVGNPPFESASHNETYRRIVKVDLKFPASVPMGAQDLISKLLRHNPSERLPLAQVSAHPWVRANSRRVLPPSALQSVA
Amount [1]: 1110 pmol

B2: INCENP WT (region at positions 121 to 270 in INCENP) (peptide)
chain: LRRVTRAAAAAAAATMALAAPSSPTPESPTMLTKKPEDNHTQCQLVPVVEIGISERQNAEQHVTQLMSTEPLPRTLSPTPASATAPTSQGIPTSDEESTPKKSKARILESITVSSLMATPQDPKGQGVGTGRSASKLRIAQVSPGPRDSP
notes: also called INCENP 121-270; not shown: His tag or GST tag
Kd [2]: 102 nM

More lines, now with the values ahead:

binding result [3]: no binding
B3: INCENP 3A (region 121 to 270 of INCENP with three amino acids substituted with alanine) (peptide)
chain: LRRVTRAAAAAAAATMALAAPSSPTPESPTMLTKKPEDNHTQCQLVAVAEAGISERQNAEQHVTQLMSTEPLPRTLSPTPASATAPTSQGIPTSDEESTPKKSKARILESITVSSLMATPQDPKGQGVGTGRSASKLRIAQVSPGPRDSP
notes: also called INCENP 3A mutant; not shown: His tag or GST tag

binding result [4]: binds
B4: Region at positions 160 to 210 in INCENP (peptide)
chain: TQCQLVPVVEIGISERQNAEQHVTQLMSTEPLPRTLSPTPASATAPTSQG
notes: Used in the alpha assay with HP1α; also called INCENP 160-210; not shown: His tag or GST tag

binding result (GST-Aurora B): binds
B5: Hec1 (other, UniProt O14777 1-80, looked up)
chain: MKRSSVSSGGAGRLSMQELRSQDVNKQGLYTPQTKEKPTFGKLSINKPTSERKVSLFGKRTSGHGSRNSQLGIFSSSEKI
notes: also called Aurora B substrate
